Biological target: T1, preproinsulin 73-90 peptide complexed with HLA-DRB1*04:01 (human, UniProt P01903 26-254; P01911 30-266)
T1 MHC II alpha: not shown
T1 MHC II beta: not shown
T1 peptide: GAGSLQPLALEGSLQKRG
Experiment: cell-based or functional assay

Binder | EC50 (nM) of CD69 upregulation, conventional CD4+ T cells + BLS-DRB1*04:01 cells, peptide titrated
TCR-G (TCR) TCR alpha: QKEVEQNSGPLSVPEGAIASLNCTYSDRGSQSFFWYRQYSGKSPELIMFIYSNGDKEDGRFTAQLNKASQYVSLLIRDSQPSDSATYLCAVIYSSASKIIFGSGTRLSIRPNIQNPDPAVYQLRDSKSSDKSVCLFTDFDSQTNVSQSKDSDVYITDKTVLDMRSMDFKSNSAVAWSNKSDFACANAFNNSIIPEDTFFPSPESSCDVKLVEKSFETDTNLNFQNLSVIGFRILLLKVAGFNLLMTLRLWSS TCR beta: SQTIHQWPATLVQPVGSPLSLECTVEGTSNPNLYWYRQAAGRGLQLLFYSVGIGQISSEVPQNLSASRPQDRQFILSSKKLLLSDSGFYLCAWSVQRLGRGGETQYFGPGTRLLVLEDLKNVFPPEVAVFEPSEAEISHTQKATLVCLATGFYPDHVELSWWVNGKEVHSGVSTDPQPLKEQPALNDSRYCLSSRLRVSATFWQNPRNHFRCQVQFYGLSENDEWTQDRAKPVTQIVSAEAWGRADCGFTSESYQQGVLSATILYEILLGKATLYAVLVSALVLMAMVKRKDSRG | 11.2 nM
TCR-G DS (TCR) TCR alpha: QKEVEQNSGPLSVPEGAIASLNCTYSDRGSQSFFWYRQYSGKSPELIMFIYSNGDKEDGRFTAQLNKASQYVSLLIRDSQPSDSATYLCAVIYSSASKIIFGSGTRLSIRPNIQNPDPAVYQLRDSKSSDKSVCLFTDFDSQTNVSQSKDSDVYITDKCVLDMRSMDFKSNSAVAWSNKSDFACANAFNNSIIPEDTFFPSPESSCDVKLVEKSFETDTNLNFQNLSVIGFRILLLKVAGFNLLMTLRLWSS TCR beta: SQTIHQWPATLVQPVGSPLSLECTVEGTSNPNLYWYRQAAGRGLQLLFYSVGIGQISSEVPQNLSASRPQDRQFILSSKKLLLSDSGFYLCAWSVQRLGRGGETQYFGPGTRLLVLEDLKNVFPPEVAVFEPSEAEISHTQKATLVCLATGFYPDHVELSWWVNGKEVHSGVCTDPQPLKEQPALNDSRYCLSSRLRVSATFWQNPRNHFRCQVQFYGLSENDEWTQDRAKPVTQIVSAEAWGRADCGFTSESYQQGVLSATILYEILLGKATLYAVLVSALVLMAMVKRKDSRG | 1.89 nM
TCR-N (TCR, V domains shown) V domain 1: GESVGLHLPTLSVQEGDNSIINCAYSNSASDYFIWYKQESGKGPQFIIDIRSNMDKRQGQRVTVLLNKTVKHLSLQIAATQPGDSAVYFCAEISKTSYDKVIFGPGTSLSVIP V domain 2: NAGVTQTPKFRILKIGQSMTLQCAQDMNHNYMYWYRQDPGMGLKLIYYSVGAGITDKGEVPNGYNVSRSTTEDFPLRLELAAPSQTSVYFCASSYGPGGRNTIYFGEGSWLTVVE | 28.2 nM
TCR-H (TCR) TCR alpha: EDQVTQSPEALRLQEGESSSLNCSYTVSGLRGLFWYRQDPGKGPEFLFTLYSAGEEKEKERLKATLTKKESFLHITAPKPEDSATYLCAVQLSDSNYKLTFGKGTLLTVNPNIQNPDPAVYQLRDSKSSDKSVCLFTDFDSQTNVSQSKDSDVYITDKTVLDMRSMDFKSNSAVAWSNKSDFACANAFNNSIIPEDTFFPSPESSCDVKLVEKSFETDTNLNFQNLSVIGFRILLLKVAGFNLLMTLRLWSS TCR beta: NAGVTQTPKFQVLKTGQSMTLQCAQDMNHNSMYWYRQDPGMGLRLIYYSASEGTTDKGEVPNGYNVSRLNKREFSLRLESAAPSQTSVYFCASRGQVNEKLFFGSGTQLSVLEDLNKVFPPEVAVFEPSEAEISHTQKATLVCLATGFFPDHVELSWWVNGKEVHSGVSTDPQPLKEQPALNDSRYCLSSRLRVSATFWQNPRNHFRCQVQFYGLSENDEWTQDRAKPVTQIVSAEAWGRADCGFTSVSYQQGVLSATILYEILLGKATLYAVLVSALVLMAMVKRKDF | 0.93 nM
TCR-H DS (TCR) TCR alpha: EDQVTQSPEALRLQEGESSSLNCSYTVSGLRGLFWYRQDPGKGPEFLFTLYSAGEEKEKERLKATLTKKESFLHITAPKPEDSATYLCAVQLSDSNYKLTFGKGTLLTVNPNIQNPDPAVYQLRDSKSSDKSVCLFTDFDSQTNVSQSKDSDVYITDKCVLDMRSMDFKSNSAVAWSNKSDFACANAFNNSIIPEDTFFPSPESSCDVKLVEKSFETDTNLNFQNLSVIGFRILLLKVAGFNLLMTLRLWSS TCR beta: NAGVTQTPKFQVLKTGQSMTLQCAQDMNHNSMYWYRQDPGMGLRLIYYSASEGTTDKGEVPNGYNVSRLNKREFSLRLESAAPSQTSVYFCASRGQVNEKLFFGSGTQLSVLEDLNKVFPPEVAVFEPSEAEISHTQKATLVCLATGFFPDHVELSWWVNGKEVHSGVCTDPQPLKEQPALNDSRYCLSSRLRVSATFWQNPRNHFRCQVQFYGLSENDEWTQDRAKPVTQIVSAEAWGRADCGFTSVSYQQGVLSATILYEILLGKATLYAVLVSALVLMAMVKRKDF | 0.62 nM
TCR-O (TCR, V domains shown) V domain 1: KQEVTQIPAALSVPEGENLVLNCSFTDSAIYNLQWFRQDPGKGLTSLLLIQSSQREQTSGRLNASLDKSSGRSTLYIAASQPGDSATYLCAVTGMDSSYKLIFGSGTRLLVRP V domain 2: DAEITQSPRHKITETGRQVTLACHQTWNHNNMFWYRQDLGHGLRLIHYSYGVHDTNKGEVSDGYSVSRSNTEDLPLTLESAASSQTSVYFCASSEGGSWGYTFGSGTRLTVVE | 6.34 nM
TCR-K (TCR) TCR alpha: RGNGKNQVEQSPQSLIILEGKNCTLQCNYTVSPFSNLRWYKQDTGRGPVSLTIMTFSENTKSNGRYTATLDADTKQSSLHITASQLSDSASYICVVSASSNTGKLIFGQGTTLQVKPDIQNPDPAVYQLRDSKSSDKSVCLFTDFDSQTNVSQSKDSDVYITDKTVLDMRSMDFKSNSAVAWSNKSDFACANAFNNSIIPEDTFFPSPESSCDVKLVEKSFETDTNLNFQNLSVIGFRILLLKVAGFNLLMTLRLWSS TCR beta: DAGVIQSPRHEVTEMGQEVTLRCKPISGHNSLFWYRQTMMRGLELLIYFNNNVPIDDSGMPEDRFSAKMPNASFSTLKIQPSEPRDSAVYFCASSGQLVAYNEQFFGPGTRLTVLEDLKNVFPPEVAVFEPSEAEISHTQKATLVCLATGFYPDHVELSWWVNGKEVHSGVSTDPQPLKEQPALNDSRYCLSSRLRVSATFWQNPRNHFRCQVQFYGLSENDEWTQDRAKPVTQIVSAEAWGRADCGFTSESYQQGVLSATILYEILLGKATLYAVLVSALVLMAMVKRKDSRG | 47.7 nM
TCR-K DS (TCR) TCR alpha: RGNGKNQVEQSPQSLIILEGKNCTLQCNYTVSPFSNLRWYKQDTGRGPVSLTIMTFSENTKSNGRYTATLDADTKQSSLHITASQLSDSASYICVVSASSNTGKLIFGQGTTLQVKPDIQNPDPAVYQLRDSKSSDKSVCLFTDFDSQTNVSQSKDSDVYITDKCVLDMRSMDFKSNSAVAWSNKSDFACANAFNNSIIPEDTFFPSPESSCDVKLVEKSFETDTNLNFQNLSVIGFRILLLKVAGFNLLMTLRLWSS TCR beta: DAGVIQSPRHEVTEMGQEVTLRCKPISGHNSLFWYRQTMMRGLELLIYFNNNVPIDDSGMPEDRFSAKMPNASFSTLKIQPSEPRDSAVYFCASSGQLVAYNEQFFGPGTRLTVLEDLKNVFPPEVAVFEPSEAEISHTQKATLVCLATGFYPDHVELSWWVNGKEVHSGVCTDPQPLKEQPALNDSRYCLSSRLRVSATFWQNPRNHFRCQVQFYGLSENDEWTQDRAKPVTQIVSAEAWGRADCGFTSESYQQGVLSATILYEILLGKATLYAVLVSALVLMAMVKRKDSRG | 19.1 nM
TCR-M (TCR, V domains shown) V domain 1: DQQVKQNSPSLSVQEGRISILNCDYTNSMFDYFLWYKKYPAEGPTFLISISSIKDKNEDGRFTVFLNKSAKHLSLHIVPSQPGDSAVYFCAASAKTSGSRLTFGEGTQLTVNP V domain 2: NAGVTQTPKFRILKIGQSMTLQCTQDMNHNYMYWYRQDPGMGLKLIYYSVGAGITDKGEVPNGYNVSRSTTEDFPLRLELAAPSQTSVYFCASRGGIQETQYFGPGTRLLVLE | 244 nM
TCR-I (TCR) TCR alpha: IDAKTTQPTSMDCAEGRAANLPCNHSTISGNEYVYWYRQIHSQGPQYIIHGLKNNETNEMASLIITEDRKSSTLILPHATLRDTAVYYCIVRFQSGGYQKVTFGTGTKLQVIPNIQNPDPAVYQLRDSKSSDKSVCLFTDFDSQTNVSQSKDSDVYITDKTVLDMRSMDFKSNSAVAWSNKSDFACANAFNNSIIPEDTFFPSPESSCDVKLVEKSFETDTNLNFQNLSVIGFRILLLKVAGFNLLMTLRLWSS TCR beta: DAGVIQSPRHEVTEMGQEVTLRCKPISGHNSLFWYRQTMMRGLELLIYFNNNVPIDDSGMPEDRFSAKMPNASFSTLKIQPSEPRDSAVYFCASSIQAGGRYNEQFFGPGTRLTVLEDLKNVFPPEVAVFEPSEAEISHTQKATLVCLATGFYPDHVELSWWVNGKEVHSGVSTDPQPLKEQPALNDSRYCLSSRLRVSATFWQNPRNHFRCQVQFYGLSENDEWTQDRAKPVTQIVSAEAWGRADCGFTSESYQQGVLSATILYEILLGKATLYAVLVSALVLMAMVKRKDSRG | 14.9 nM
TCR-I DS (TCR) TCR alpha: IDAKTTQPTSMDCAEGRAANLPCNHSTISGNEYVYWYRQIHSQGPQYIIHGLKNNETNEMASLIITEDRKSSTLILPHATLRDTAVYYCIVRFQSGGYQKVTFGTGTKLQVIPNIQNPDPAVYQLRDSKSSDKSVCLFTDFDSQTNVSQSKDSDVYITDKCVLDMRSMDFKSNSAVAWSNKSDFACANAFNNSIIPEDTFFPSPESSCDVKLVEKSFETDTNLNFQNLSVIGFRILLLKVAGFNLLMTLRLWSS TCR beta: DAGVIQSPRHEVTEMGQEVTLRCKPISGHNSLFWYRQTMMRGLELLIYFNNNVPIDDSGMPEDRFSAKMPNASFSTLKIQPSEPRDSAVYFCASSIQAGGRYNEQFFGPGTRLTVLEDLKNVFPPEVAVFEPSEAEISHTQKATLVCLATGFYPDHVELSWWVNGKEVHSGVCTDPQPLKEQPALNDSRYCLSSRLRVSATFWQNPRNHFRCQVQFYGLSENDEWTQDRAKPVTQIVSAEAWGRADCGFTSESYQQGVLSATILYEILLGKATLYAVLVSALVLMAMVKRKDSRG | 8.03 nM
TCR-L (TCR, V domains shown) V domain 1: RKEVEQDPGPFNVPEGATVAFNCTYSNSASQSFFWYRQDCRKEPKLLMSVYSSGNEDGRFTAQLNRASQYISLLIRDSKLSDSATYLCVVLRNSGNTPLVFGKGTRLSVIA V domain 2: DAGITQSPRHKVTETGTPVTLRCHQTENHRYMYWYRQDPGHGLRLIHYSYGVKDTDKGEVSDGYSVSRSKTEDFLLTLESATSSQTSVYFCAIKPGQGNRGEQFFGPGTRLTVLE | 498 nM
